Residue numbers refer to the chain shown, from its start. In names and notes the source's numbering stands.
B1: humanized mAb BAP049-hum15 (antibody, human IgG4 S228P, kappa)
heavy: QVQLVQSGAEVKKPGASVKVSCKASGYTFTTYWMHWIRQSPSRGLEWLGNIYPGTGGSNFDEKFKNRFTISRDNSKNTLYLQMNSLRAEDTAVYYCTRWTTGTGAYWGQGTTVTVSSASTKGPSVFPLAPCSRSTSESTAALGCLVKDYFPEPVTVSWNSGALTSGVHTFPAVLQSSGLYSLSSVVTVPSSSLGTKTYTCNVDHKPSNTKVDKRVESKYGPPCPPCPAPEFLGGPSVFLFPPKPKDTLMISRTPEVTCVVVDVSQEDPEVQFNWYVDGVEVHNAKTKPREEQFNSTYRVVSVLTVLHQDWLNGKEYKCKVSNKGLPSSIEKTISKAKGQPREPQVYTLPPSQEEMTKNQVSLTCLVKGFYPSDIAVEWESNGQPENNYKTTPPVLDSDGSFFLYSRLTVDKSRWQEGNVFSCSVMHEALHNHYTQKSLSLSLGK
light: EIVLTQSPDFQSVTPKEKVTITCKSSQSLLDSGNQKNFLTWYQQKPGQAPRLLIYWASTRESGVPSRFSGSGSGTDFTFTISSLEAEDAATYYCQNDYSYPYTFGQGTKVEIKRTVAAPSVFIFPPSDEQLKSGTASVVCLLNNFYPREAKVQWKVDNALQSGNSQESVTEQDSKDSTYSLSSTLTLSKADYEKHKVYACEVTHQGLSSPVTKSFNRGEC
notes: Human IgG4(S228P), human kappa; tested as concentrated supernatant of transiently transfected CHO cells
B2: humanized mAb BAP049-hum10 (antibody, human IgG4 S228P, kappa)
heavy: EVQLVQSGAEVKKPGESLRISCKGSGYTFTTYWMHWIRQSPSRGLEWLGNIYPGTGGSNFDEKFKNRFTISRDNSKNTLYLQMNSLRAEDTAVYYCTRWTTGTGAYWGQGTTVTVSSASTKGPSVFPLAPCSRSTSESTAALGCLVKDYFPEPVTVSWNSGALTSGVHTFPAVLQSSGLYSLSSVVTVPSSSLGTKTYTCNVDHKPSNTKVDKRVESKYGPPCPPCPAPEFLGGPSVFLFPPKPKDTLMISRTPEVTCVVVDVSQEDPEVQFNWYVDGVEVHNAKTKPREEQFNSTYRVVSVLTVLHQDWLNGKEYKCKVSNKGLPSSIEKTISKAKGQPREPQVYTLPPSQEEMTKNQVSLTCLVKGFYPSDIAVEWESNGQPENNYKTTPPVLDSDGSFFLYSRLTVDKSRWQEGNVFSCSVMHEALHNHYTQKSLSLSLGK
light: B1 light with D9A, F10T, Q11L, V13L, T14S, K16G, K18R, V19A, I21L, T22S
notes: Human IgG4(S228P), human kappa; tested as concentrated supernatant of transiently transfected CHO cells; also called Clone No. 10
B3: humanized mAb BAP049-hum11 (antibody, human IgG4 S228P, kappa)
heavy: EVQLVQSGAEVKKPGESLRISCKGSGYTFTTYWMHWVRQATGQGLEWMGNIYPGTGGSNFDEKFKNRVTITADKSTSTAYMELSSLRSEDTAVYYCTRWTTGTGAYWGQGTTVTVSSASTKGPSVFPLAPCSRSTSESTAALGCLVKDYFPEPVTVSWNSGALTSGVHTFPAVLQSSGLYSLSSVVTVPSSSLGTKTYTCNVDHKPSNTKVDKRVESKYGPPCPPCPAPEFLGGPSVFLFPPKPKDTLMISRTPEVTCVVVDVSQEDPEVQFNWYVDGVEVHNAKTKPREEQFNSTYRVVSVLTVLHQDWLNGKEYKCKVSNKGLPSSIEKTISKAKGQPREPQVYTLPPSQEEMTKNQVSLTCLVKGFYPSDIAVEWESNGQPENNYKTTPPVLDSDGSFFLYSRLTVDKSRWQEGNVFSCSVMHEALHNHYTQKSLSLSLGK
light: B1 light with D9A, F10T, Q11L, V13L, T14S, K16G, K18R, V19A, I21L, T22S
notes: Human IgG4(S228P), human kappa; tested as concentrated supernatant of transiently transfected CHO cells; also called Clone No. 11
B4: humanized mAb BAP049-hum09 (antibody, human IgG4 S228P, kappa)
heavy: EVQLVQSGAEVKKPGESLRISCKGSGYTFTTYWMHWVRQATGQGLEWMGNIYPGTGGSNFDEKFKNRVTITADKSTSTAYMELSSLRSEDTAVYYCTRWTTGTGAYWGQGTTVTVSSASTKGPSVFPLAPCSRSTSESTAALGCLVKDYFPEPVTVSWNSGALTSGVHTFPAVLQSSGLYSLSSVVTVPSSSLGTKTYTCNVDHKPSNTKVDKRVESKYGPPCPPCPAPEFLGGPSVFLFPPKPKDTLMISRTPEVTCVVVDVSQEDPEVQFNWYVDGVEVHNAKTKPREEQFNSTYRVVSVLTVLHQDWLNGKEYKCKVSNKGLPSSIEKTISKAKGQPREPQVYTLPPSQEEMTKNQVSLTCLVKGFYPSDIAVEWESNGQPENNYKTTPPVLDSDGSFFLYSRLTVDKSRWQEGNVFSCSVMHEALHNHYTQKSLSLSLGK
light: B1 light
notes: Human IgG4(S228P), human kappa; tested as concentrated supernatant of transiently transfected CHO cells; also called Clone No. 09
B5: humanized mAb BAP049-hum08 (antibody, human IgG4 S228P, kappa)
heavy: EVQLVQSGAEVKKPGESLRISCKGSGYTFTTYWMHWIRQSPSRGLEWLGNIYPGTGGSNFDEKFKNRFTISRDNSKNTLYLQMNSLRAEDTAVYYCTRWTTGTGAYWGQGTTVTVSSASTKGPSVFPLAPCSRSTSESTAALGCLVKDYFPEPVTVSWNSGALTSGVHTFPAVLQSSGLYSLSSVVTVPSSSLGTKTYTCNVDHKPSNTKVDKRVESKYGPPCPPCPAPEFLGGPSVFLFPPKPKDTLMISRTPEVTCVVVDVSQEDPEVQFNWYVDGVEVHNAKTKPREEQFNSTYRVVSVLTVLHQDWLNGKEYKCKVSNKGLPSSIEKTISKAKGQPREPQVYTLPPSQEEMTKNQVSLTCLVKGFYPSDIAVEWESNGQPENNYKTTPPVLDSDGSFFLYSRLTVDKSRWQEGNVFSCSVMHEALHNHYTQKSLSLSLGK
light: B1 light
notes: Human IgG4(S228P), human kappa; tested as concentrated supernatant of transiently transfected CHO cells; also called Clone No. 08
B6: humanized mAb BAP049-hum01 (antibody, human IgG4 S228P, kappa, V domains shown)
VH: EVQLVQSGAEVKKPGESLRISCKGSGYTFTTYWMHWVRQATGQGLEWMGNIYPGTGGSNFDEKFKNRVTITADKSTSTAYMELSSLRSEDTAVYYCTRWTTGTGAYWGQGTTVTVSS
VL: EIVLTQSPATLSLSPGERATLSCKSSQSLLDSGNQKNFLTWYQQKPGQAPRLLIYWASTRESGVPSRFSGSGSGTEFTLTISSLQPDDFATYYCQNDYSYPYTFGQGTKVEIKR
notes: Human IgG4(S228P), human kappa; tested as concentrated supernatant of transiently transfected CHO cells; also called Clone No. 01
B7: humanized mAb BAP049-hum14 (antibody, human IgG4 S228P, kappa)
heavy: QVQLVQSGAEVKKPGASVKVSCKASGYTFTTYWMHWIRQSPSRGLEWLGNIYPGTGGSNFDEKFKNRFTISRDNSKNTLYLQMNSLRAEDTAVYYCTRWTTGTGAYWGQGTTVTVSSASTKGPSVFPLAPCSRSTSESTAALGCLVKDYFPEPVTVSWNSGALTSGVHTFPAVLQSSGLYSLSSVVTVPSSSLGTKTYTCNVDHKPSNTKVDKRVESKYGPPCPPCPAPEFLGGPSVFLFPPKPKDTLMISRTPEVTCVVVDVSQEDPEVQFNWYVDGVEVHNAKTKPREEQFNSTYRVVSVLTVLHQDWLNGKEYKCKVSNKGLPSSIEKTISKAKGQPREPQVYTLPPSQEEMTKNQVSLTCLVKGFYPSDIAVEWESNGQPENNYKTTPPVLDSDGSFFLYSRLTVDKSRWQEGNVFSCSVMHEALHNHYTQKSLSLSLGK
light: B1 light with D9A, F10T, Q11L, V13L, T14S, K16G, K18R, V19A, I21L, T22S
notes: as for B1
B8: humanized mAb BAP049-hum04 (antibody, human IgG4 S228P, kappa, V domains shown)
VH: EVQLVQSGAEVKKPGESLRISCKGSGYTFTTYWMHWIRQSPSRGLEWLGNIYPGTGGSNFDEKFKNRFTISRDNSKNTLYLQMNSLRAEDTAVYYCTRWTTGTGAYWGQGTTVTVSS
VL: B6 VL with Q48K, R51K, E76D, L79F, D87E, F89I
notes: as for B1
B9: humanized mAb BAP049-hum06 (antibody, human IgG4 S228P, kappa)
heavy: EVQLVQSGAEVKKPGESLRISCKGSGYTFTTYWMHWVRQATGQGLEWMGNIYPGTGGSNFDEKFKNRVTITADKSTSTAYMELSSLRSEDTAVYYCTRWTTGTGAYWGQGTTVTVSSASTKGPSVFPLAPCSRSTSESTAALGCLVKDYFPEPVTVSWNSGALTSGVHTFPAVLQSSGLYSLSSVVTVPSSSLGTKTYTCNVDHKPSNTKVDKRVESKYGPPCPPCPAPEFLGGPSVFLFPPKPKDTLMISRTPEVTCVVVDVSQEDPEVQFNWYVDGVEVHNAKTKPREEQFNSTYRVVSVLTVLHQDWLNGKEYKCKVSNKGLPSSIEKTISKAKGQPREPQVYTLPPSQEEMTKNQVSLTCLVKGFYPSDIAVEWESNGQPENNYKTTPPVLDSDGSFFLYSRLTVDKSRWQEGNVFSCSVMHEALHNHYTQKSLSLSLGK
light: DIVMTQTPLSLPVTPGEPASISCKSSQSLLDSGNQKNFLTWYQQKPGQAPRLLIYWASTRESGVPSRFSGSGSGTDFTFTISSLEAEDAATYYCQNDYSYPYTFGQGTKVEIKRTVAAPSVFIFPPSDEQLKSGTASVVCLLNNFYPREAKVQWKVDNALQSGNSQESVTEQDSKDSTYSLSSTLTLSKADYEKHKVYACEVTHQGLSSPVTKSFNRGEC
notes: as for B1
B10: humanized mAb BAP049-hum05 (antibody, human IgG4 S228P, kappa, V domains shown)
VH: B6 VH
VL: B6 VL with Q48K, R51K, E76D, L79F, D87E, F89I
notes: Human IgG4(S228P), human kappa; tested as concentrated supernatant of transiently transfected CHO cells; also called Clone No. 05
B11: humanized mAb BAP049-hum07 (antibody, human IgG4 S228P, kappa)
heavy: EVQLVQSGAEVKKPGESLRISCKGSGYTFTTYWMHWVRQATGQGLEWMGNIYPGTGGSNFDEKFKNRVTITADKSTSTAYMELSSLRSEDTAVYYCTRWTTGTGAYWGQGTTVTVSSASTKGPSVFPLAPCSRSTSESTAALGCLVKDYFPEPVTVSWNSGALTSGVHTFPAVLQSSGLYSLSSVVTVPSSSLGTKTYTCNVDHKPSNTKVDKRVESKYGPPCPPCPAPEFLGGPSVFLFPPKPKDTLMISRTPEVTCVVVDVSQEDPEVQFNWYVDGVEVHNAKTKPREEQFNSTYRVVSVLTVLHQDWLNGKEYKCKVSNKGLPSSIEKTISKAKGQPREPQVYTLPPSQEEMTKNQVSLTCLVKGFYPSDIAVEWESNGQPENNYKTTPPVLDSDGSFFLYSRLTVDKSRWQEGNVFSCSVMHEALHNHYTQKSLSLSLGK
light: EIVLTQSPATLSLSPGERATLSCKSSQSLLDSGNQKNFLTWYQQKPGKAPKLLIYWASTRESGVPSRFSGSGSGTDFTFTISSLEAEDAATYYCQNDYSYPYTFGQGTKVEIKRTVAAPSVFIFPPSDEQLKSGTASVVCLLNNFYPREAKVQWKVDNALQSGNSQESVTEQDSKDSTYSLSSTLTLSKADYEKHKVYACEVTHQGLSSPVTKSFNRGEC
notes: as for B1
B12: humanized mAb BAP049-hum02 (antibody, human IgG4 S228P, kappa, V domains shown)
VH: B6 VH
VL: DIQMTQSPSSLSASVGDRVTITCKSSQSLLDSGNQKNFLTWYQQKPGQAPRLLIYWASTRESGIPPRFSGSGYGTDFTLTINNIESEDAAYYFCQNDYSYPYTFGQGTKVEIKR
notes: as for B1
B13: humanized mAb BAP049-hum12 (antibody, human IgG4 S228P, kappa, V domains shown)
VH: B6 VH
VL: DIQMTQSPSSLSASVGDRVTITCKSSQSLLDSGNQKNFLTWYLQKPGQSPQLLIYWASTRESGVPSRFSGSGSGTDFTFTISSLEAEDAATYYCQNDYSYPYTFGQGTKVEIKR
notes: as for B1
B14: humanized mAb BAP049-hum16 (antibody, human IgG4 S228P, kappa, V domains shown)
VH: B8 VH with I37V, S40A, S42G, R43Q, L48M
VL: EIVLTQSPDFQSVTPKEKVTITCKSSQSLLDSGNQKNFLTWYQQKPGQAPRLLIYWASTRESGVPSRFSGSGSGTDFTFTISSLEAEDAATYYCQNDYSYPYTFGQGTKVEIKR
notes: as for B1
B15: humanized mAb BAP049-hum03 (antibody, human IgG4 S228P, kappa, V domains shown)
VH: B8 VH
VL: B12 VL
notes: as for B1
B16: chimeric antibody BAP049-chi (Tyr) (antibody, human IgG4 S228P, kappa, V domains shown)
VH: QVQLQQSGSELVRPGASVKLSCKASGYTFTTYWMHWVRQRPGQGLEWIGNIYPGTGGSNFDEKFKNRTSLTVDTSSTTAYMHLASLTSEDSAVYYCTRWTTGTGAYWGQGTTVTVSS
VL: DIVMTQSPSSLTVTAGEKVTMSCKSSQSLLDSGNQKNFLTWYQQKPGQPPKLLIFWASTRESGVPDRFTGSGSVTDFTLTISSVQAEDLAVYYCQNDYSYPYTFGQGTKVEIKR
notes: Murine variable regions, human IgG4(S228P), human kappa; also called BAP049-chi-Y; Chi mAb (Tyr)
B17: humanized mAb BAP049-hum13 (antibody, human IgG4 S228P, kappa)
heavy: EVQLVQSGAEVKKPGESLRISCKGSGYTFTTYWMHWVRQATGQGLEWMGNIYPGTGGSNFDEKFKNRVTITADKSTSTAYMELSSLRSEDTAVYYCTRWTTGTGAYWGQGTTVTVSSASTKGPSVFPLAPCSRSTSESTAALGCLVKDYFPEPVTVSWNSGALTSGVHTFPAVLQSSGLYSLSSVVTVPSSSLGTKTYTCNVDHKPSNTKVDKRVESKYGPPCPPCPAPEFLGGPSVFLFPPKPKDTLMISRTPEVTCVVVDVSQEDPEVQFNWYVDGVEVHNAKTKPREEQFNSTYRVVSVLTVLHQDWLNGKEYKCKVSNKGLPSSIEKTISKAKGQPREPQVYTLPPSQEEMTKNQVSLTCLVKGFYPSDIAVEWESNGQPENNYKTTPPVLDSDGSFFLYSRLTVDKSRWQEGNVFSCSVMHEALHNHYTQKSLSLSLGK
light: B9 light with I2V, T7S, P15L, E17Q, Q48K, R51K
notes: as for B1

Key:
[1] = molecular target: T1, human PD-1 expressed on cells (human, UniProt Q15116 25-288); assay: rank among the 16 humanized clones by FACS binding data on PD-1-expressing cells
T1 construct: whole, on cells; Treated as one molecule; also called PD-1 expressing Jurkat cells; human PD-1 transfected Jurkat cells

[2] = molecular target: T1, human PD-1 expressed on cells; assay: rank among the 16 humanized clones in competition with Alexa 488-labeled murine mAb BAP049 on PD-1-expressing 300.19 cells, first experiment
Experimental: (§1) Incubations with the mAb mixtures having different concentration ratios of test mAb to labeled mAb was at 4° C. for 30 min. Bound labeled murine mAb was then quantified using a FACS machine. The experiment was performed twice.

[3] = molecular target: T1, human PD-1 expressed on cells; assay: rank among the 16 humanized clones in competition with Alexa 488-labeled murine mAb BAP049 on PD-1-expressing 300.19 cells, second experiment
Experimental: as §1

[4] = molecular target: T1, human PD-1 expressed on cells; assay: FACS blocking assay on PD-1-expressing 300.19 cells; blocked ligand at constant concentration: PD-L1-huIgG1 Fc fusion protein (legend paragraph 211 names 'PD-L1-Ig and PD-L2-Ig' for FIG. 8A); bound ligand detected with PE anti-human IgG F(ab')2
Experimental: Incubation was at 4° C. for 30 min. Bound ligand fusion proteins were detected with PE-conjugated F(ab′)2 fragment of goat anti-human IgG which doesn't recognize IgG4 mAbs (Southern Biotech 2043-09), and flow cytometry.

T1 sequence (Q15116 25-288): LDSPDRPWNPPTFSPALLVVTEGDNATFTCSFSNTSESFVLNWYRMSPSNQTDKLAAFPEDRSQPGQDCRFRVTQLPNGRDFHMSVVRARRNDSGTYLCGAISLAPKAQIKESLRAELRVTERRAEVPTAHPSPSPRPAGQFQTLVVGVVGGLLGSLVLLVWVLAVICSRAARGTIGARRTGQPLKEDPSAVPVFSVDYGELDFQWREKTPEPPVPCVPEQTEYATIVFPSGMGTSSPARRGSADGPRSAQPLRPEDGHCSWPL

Binder | Ranking FACS data [1] | Competition Binding 1st exp. (rank) [2] | Competition Binding 2nd exp. (rank) [3] | IC50 (read off the curve) [4] [µg/mL]
B1 | 6 | 7 | 15 | –
B2 | 7 | 6 | > 4 | ~1
B3 | 6 | 4 | > 4 | –
B4 | 7 | 2 | 4 | –
B5 | 7 | 7 | 4 | –
B6 | 2 | 7 | 2 | ~1
B7 | 16 | 7 | 15 | –
B8 | 14 | 15 | 15 | –
B9 | 1 | 7 | 3 | –
B10 | 5 | 5 | > 4 | ~1
B11 | 4 | 7 | > 4 | –
B12 | 6 | 3 | 2 | –
B13 | 3 | 8 | 16 | –
B14 | 15 | 16 | 15 | –
B15 | 7 | 8 | 14 | –
B16 | – | – | – | ~0.8
B17 | 6 | 1 | 1 | –

From patent publication US20180155427A1 (Novartis, published 2018)
